In patent US20230059341A1 (TESARO, published 2023):
Where two headings read alike, the source gives them in different places. One block for each binder: values may come before it.

What was measured:
[1] = target: T1, PD-1 protein constitutively expressed on engineered CHO K1 cells (UniProt Q15116 25-288, limits assumed); assay: MSD potency assay: competitive binding on CHO K1 cells expressing PD-1, inhibition of PD-L1-mFc binding, ECL; percent of reference material
T1 construct: whole, on cells; also called programmed cell death protein 1
T1 sequence (Q15116 25-288 limits assumed, change not shown): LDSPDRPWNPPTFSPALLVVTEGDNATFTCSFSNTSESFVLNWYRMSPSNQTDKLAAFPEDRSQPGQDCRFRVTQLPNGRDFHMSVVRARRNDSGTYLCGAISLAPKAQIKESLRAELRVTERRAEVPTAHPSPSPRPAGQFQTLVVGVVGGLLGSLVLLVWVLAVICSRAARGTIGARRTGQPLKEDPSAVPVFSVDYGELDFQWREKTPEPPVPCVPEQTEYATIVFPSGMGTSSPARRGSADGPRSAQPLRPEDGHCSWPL
Experimental: (§1) The Meso Scale Discovery (MSD) potency assay employs engineered CHO K1 cells constitutively expressing the PD-1 protein. […] The readout is measured using a specific detection antibody mixture that releases an electrochemiluminescence (ECL) signal that can be quantified.

[2] = target: T1, PD-1 protein constitutively expressed …; assay: as above; remark: listed apart in the source
Experimental: as §1

[3] = target: T2, Neonatal Fc Receptor (FcRn) (UniProt P55899 24-297; P61769 21-119, limits assumed); assay: FcRn binding assay, BIACORE (SPR)
[4] = target: T2, Neonatal Fc Receptor (FcRn); assay: FcRn binding assay, BIACORE (SPR); remark: listed apart in the source
[5] = target: T2, Neonatal Fc Receptor (FcRn); assay: FcRn binding assay, BIACORE (SPR); remark: listed apart in the source
[6] = target: T2, Neonatal Fc Receptor (FcRn); assay: FcRn binding assay, BIACORE (SPR); remark: listed apart in the source
[7] = target: T3, human PD-1 on PD-1 effector cells (Jurkat T cells, Promega #J1155) (human, UniProt Q15116 25-288); assay: cell-based or functional assay
T3 sequence (Q15116 25-288): as the sequence (Q15116 25-288 limits assumed, change not shown) above

[8] = target: T3, human PD-1 on PD-1 effector cells …; assay: cell-based or functional assay; remark: listed apart in the source
[9] = target: T3, human PD-1 on PD-1 effector cells …; assay: cell-based or functional assay; remark: listed apart in the source
[10] = target: T3, human PD-1 on PD-1 effector cells …; assay: cell-based or functional assay; remark: listed apart in the source
[11] = target: T2, Neonatal Fc Receptor (FcRn); assay: FcRn binding assay, BIACORE (SPR); remark: listed apart in the source
[12] = target: T3, human PD-1 on PD-1 effector cells …; assay: cell-based or functional assay; remark: listed apart in the source
[13] = target: T1, PD-1 protein constitutively expressed …; assay: MSD potency assay: competitive binding on CHO K1 cells expressing PD-1, inhibition of PD-L1-mFc binding, ECL; percent of reference material; remark: listed apart in the source
Experimental: as §1

[14] = target: T1, PD-1 protein constitutively expressed …; assay: as above; remark: listed apart in the source
Experimental: as §1

[15] = target: T2, Neonatal Fc Receptor (FcRn); assay: FcRn binding assay, BIACORE (SPR); remark: listed apart in the source
[16] = target: T2, Neonatal Fc Receptor (FcRn); assay: FcRn binding assay, BIACORE (SPR); T0 (exposed to H2O2, no incubation)

Relative Potency, MSD Binding [1]: 88%
Relative Potency, MSD Binding [2]: 88%
Kd [3]: 2140 nM
Kd [4]: 2140 nM
Kd [5]: 2140 nM
Kd [6]: 2140 nM
Relative Potency, Cell-Based Bioassay [7]: 98%
Relative Potency, Cell-Based Bioassay [8]: 98%
Relative Potency (Potency by cell-based bioassay) [9]: 98%
Relative Potency, Cell-Based Bioassay [10]: 98%
Kd [11]: 2140 nM
Relative Potency, Cell-Based Bioassay [12]: 98%
Relative Potency, MSD Binding [13]: 88%
Relative Potency, MSD Binding [14]: 88%
Kd [15]: 2140 nM
B1: Dostarlimab, Unstressed Control (antibody, human IgG4 S228P, kappa)
heavy: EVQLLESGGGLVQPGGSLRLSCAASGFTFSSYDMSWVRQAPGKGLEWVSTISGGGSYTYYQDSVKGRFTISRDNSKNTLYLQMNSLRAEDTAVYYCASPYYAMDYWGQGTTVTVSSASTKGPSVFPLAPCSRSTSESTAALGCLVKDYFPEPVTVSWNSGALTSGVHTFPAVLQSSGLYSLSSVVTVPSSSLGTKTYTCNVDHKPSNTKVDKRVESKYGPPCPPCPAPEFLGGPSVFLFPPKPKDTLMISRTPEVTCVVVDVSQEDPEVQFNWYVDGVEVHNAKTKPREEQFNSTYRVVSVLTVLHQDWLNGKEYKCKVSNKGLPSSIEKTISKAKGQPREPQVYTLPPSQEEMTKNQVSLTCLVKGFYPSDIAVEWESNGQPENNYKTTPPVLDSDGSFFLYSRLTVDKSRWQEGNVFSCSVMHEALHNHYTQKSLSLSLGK
light: DIQLTQSPSFLSAYVGDRVTITCKASQDVGTAVAWYQQKPGKAPKLLIYWASTLHTGVPSRFSGSGSGTEFTLTISSLQPEDFATYYCQHYSSYPWTFGQGTKLEIKRTVAAPSVFIFPPSDEQLKSGTASVVCLLNNFYPREAKVQWKVDNALQSGNSQESVTEQDSKDSTYSLSSTLTLSKADYEKHKVYACEVTHQGLSSPVTKSFNRGEC
modifications: percent of population: Met 248 oxidation 3.0; Asp 261/266/276 isomerization 1.0; Asn 311 deamidation 6.0; Asn 380 deamidation 8.4; Asn 430 deamidation 1.2; Lys 443 clipped 97.8
notes: Control of the forced degradation study (DS batch #1); HMW 0.9%

Relative Potency, MSD Binding [2]: 95%
Relative Potency, Cell-Based Bioassay [8]: 94%
Relative Potency (Potency by cell-based bioassay) [9]: 94%
Kd [16]: 4380 nM
B2: Dostarlimab, H2O2 treated, T0 (exposed to H2O2, no incubation) (antibody, human IgG4 S228P, kappa)
heavy: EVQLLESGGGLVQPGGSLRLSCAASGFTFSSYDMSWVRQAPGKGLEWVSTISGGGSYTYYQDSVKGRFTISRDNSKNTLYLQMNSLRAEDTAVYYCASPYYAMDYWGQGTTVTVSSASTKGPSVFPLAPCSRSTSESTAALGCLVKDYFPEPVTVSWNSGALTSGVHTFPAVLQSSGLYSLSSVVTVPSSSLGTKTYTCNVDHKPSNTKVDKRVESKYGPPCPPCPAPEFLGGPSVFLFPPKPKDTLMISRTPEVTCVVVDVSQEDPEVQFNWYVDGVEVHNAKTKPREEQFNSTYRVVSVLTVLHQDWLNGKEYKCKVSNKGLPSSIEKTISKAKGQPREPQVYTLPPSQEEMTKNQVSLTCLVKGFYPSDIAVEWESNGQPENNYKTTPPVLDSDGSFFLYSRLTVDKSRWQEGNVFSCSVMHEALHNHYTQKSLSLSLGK
light: B1 light
modifications: percent of population: Asn 137 deamidation 1.3; percent of population: Met 103 oxidation 1.2; Met 248 oxidation 47.1; Asn 311 deamidation 6.8; Met 354 oxidation 16.7; Asn 380 deamidation 10.7; Asn 385 deamidation 1.7; Met 424 oxidation 29.0; Lys 443 clipped 97.2
notes: 0.1% (v:v) H2O2, quenched at once with methionine; also called H2O2 T0; Peroxide (H2O2) Oxidation

Relative Potency (Potency by cell-based bioassay) [9]: 90%
Kd [15]: 2490 nM
B3: Dostarlimab, photo degraded, Vis light, 25° C., 1 week and UV light, 25° C., 1 week (antibody, human IgG4 S228P, kappa)
heavy: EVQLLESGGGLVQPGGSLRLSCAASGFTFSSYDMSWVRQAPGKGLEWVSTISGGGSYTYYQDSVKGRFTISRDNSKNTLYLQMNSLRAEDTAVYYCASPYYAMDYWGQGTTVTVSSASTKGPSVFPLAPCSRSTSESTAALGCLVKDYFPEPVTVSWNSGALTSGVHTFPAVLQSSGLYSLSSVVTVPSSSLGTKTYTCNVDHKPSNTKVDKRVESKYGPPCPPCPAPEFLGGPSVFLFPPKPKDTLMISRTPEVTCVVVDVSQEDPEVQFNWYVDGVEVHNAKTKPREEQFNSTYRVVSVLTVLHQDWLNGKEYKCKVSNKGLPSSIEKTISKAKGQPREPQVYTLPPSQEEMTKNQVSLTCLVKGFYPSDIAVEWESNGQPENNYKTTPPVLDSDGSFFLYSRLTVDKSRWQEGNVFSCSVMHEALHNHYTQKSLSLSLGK
light: B1 light
modifications: percent of population: Trp 50 oxidation 4.8; percent of population: Met 248 oxidation 33.4; Asp 261/266/276 isomerization 1.0; Asn 311 deamidation 6.4; Met 354 oxidation 10.9; Asn 380 deamidation 9.5; Asn 385 deamidation 1.3; Met 424 oxidation 27.0; Asn 430 deamidation 1.2; Lys 443 clipped 97.8
notes: Mixture; HMW 3.3%; also called Photolysis
